The results in this text go back to patent publication US20220402989A1 (Regeneron, published 2022).

In test [1] the target is T1, human PD1 expressed endogenously on YT/STAT5 luc/Cl4 cells (human, UniProt Q15116 25-288).
T1 construct: whole, on cells; also called hPD1; PD1+ cells
In words: flow cytometry (FACS) titration on YT/STAT5 luc/CL4 cells with endogenous hPD1, APC anti-human Fc-gamma secondary, MFI_APC. The procedure: To compare hPD1 binding of αhPD1-IL2Rα-IL2 proteins to their respective parental anti-hPD1 antibodies, YT/STAT5 luc/Cl4 cells expressing endogenous levels of hPD1 were washed twice with FACS wash (PBS+2% FBS) and resuspended at 1×10\hat{ }6 cells/ml in FACS wash. Cells (100 μl/well) were then plated in 96 well U bottom plates. Cells were spun down (1200 RPM, 5 minutes) and resuspended in 100 μl/well of the various antibody dilutions listed in mAb clone IDs. The antibody titrations were prepared starting at 20 μg/ml with a 6-fold dilution using FACS wash. Cells were incubated with the antibodies for 30 minutes at 4° C. The unbound antibodies were then removed by washing the cells twice using FACS wash. The cells were then resuspended in 100 μl/well of 1:200 dilution of APC-anti-human Fcγ secondary antibody. The cells were incubated for 30 minutes at 4° C. The unbound antibodies were then removed by washing the cells twice using FACS wash. The cells were then resuspended in 160 μl/well of FACS wash and run to test binding using BD FACSCanto™ Flow Cytometer.
(In general: A flow cytometer gives signals particle by particle.)

Test [2] deals with human PD1 (amino acids M1-L288 of NP_005009.2 with a 2Q=>E mutation) stably expressed on engineered reporter … (human, UniProt Q15116 25-288). Kind of test: cell-based or functional assay.
Chain of human PD1 (amino acids M1-L288 of NP_005009.2 with a 2Q=>E mutation) stably expressed on engineered reporter … (Q15116 25-288, change not shown): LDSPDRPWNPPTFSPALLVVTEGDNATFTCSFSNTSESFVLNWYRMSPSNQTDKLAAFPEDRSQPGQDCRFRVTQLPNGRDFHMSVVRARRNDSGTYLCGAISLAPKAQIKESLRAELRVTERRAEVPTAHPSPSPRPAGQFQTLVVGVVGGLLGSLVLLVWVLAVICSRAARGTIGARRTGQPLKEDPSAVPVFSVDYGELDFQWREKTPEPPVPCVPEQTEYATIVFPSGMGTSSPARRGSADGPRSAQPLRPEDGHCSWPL
Test [3] concerns the target T2, human PD-1 expressed with a C-terminal myc-myc-hexahistidine tag (human).
T2 construct: also called hPD-1.mmH; hPD-1.mmh
In words: SPR (Biacore), antibody captured via anti-human Fc, hPD-1.mmH in solution, 25 C. The procedure:
The CM5 Biacore sensor surface was derivatized by amine coupling with a monoclonal mouse anti-human Fc antibody (GE, #BR-1008-39). All Biacore binding studies were performed in a buffer composed of 0.01M HEPES pH 7.4, 0.15M NaCl, 3 mM EDTA, 0.05% v/v Surfactant P20 (HBS-EP running buffer). […] Antibody-reagent association was monitored for 4 or 5 minutes, while dissociation in HBS-EP running buffer was monitored for 10 minutes. […] All binding kinetics experiments were performed at 25° C.
Kinetic association (kₐ) and dissociation (kd) rate constants were determined by fitting the real-time sensorgrams to a 1:1 binding model using Scrubber 2.0c curve fitting software. Binding dissociation equilibrium constants (KD) and dissociative half-lives (t½) were calculated from the kinetic rate constants as: […]
In general terms: Surface plasmon resonance follows binding to a sensor surface in real time, without labels.

T2 sequence (chain, as listed by the source limits assumed): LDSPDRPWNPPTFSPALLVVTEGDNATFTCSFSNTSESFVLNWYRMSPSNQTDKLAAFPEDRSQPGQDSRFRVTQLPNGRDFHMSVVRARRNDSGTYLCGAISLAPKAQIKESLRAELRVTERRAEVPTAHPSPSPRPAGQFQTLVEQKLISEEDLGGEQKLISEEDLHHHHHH
T1 sequence (Q15116 25-288): as the sequence (Q15116 25-288, change not shown) above

B1: mAb9048 (antibody, V domains shown)
VH: QVQLVQSGAEVKRPGSSVKVSCKVSGVTFRNFAIIWVRQAPGQGLEWMGGIIPFFSAANYAQSFQGRVTITPDESTSTAFMELASLRSEDTAVYYCAREGERGHTYGFDYWGQGTLVTVSS
VL: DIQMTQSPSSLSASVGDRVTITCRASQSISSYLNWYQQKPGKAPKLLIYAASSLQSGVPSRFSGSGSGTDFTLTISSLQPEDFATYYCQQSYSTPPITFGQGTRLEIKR
notes: The full chains are those of H4H9048 (human IgG4 Fc with S108P); also called H4H9048
As usually defined, the EC50 is the concentration at which the effect is half-maximal. A lower EC50 goes with a more potent agent. As usually defined, the Kd is the concentration at which binding is half-saturated. Read a high Kd as lower affinity. A word on the koff: it is the rate constant with which the complex falls apart. A word on the kon: it is the rate constant with which the complex forms. B1 gave an EC50 in test [1] of 3.48 nM. For the same molecule, the “Fold induction, AP1-Luc PD1 antagonistic assay” value (shortened to “Fold induction”) in test [2] stood at 1.24 fold. Besides, in test [3], the “90 nM or 100 nM hPD-1.mmH Bind (RU)” value amounted to 52.7 RU, the Kd is 8.95 nM, the koff stood at 0.00123 s⁻¹ and the association rate constant (kon) is 137000 M⁻¹ s⁻¹. In test [3], this molecule gave a t1/2 of 9.4 min.

B2: REGN2810 (antibody, human IgG4 S228P, kappa, V domains shown)
VH: EVQLLESGGVLVQPGGSLRLSCAASGFTFSNFGMTWVRQAPGKGLEWVSGISGGGRDTYFADSVKGRFTISRDNSKNTLYLQMNSLKGEDTAVYYCVKWGNIYFDYWGQGTLVTVSS
VL: DIQMTQSPSSLSASVGDSITITCRASLSINTFLNWYQQKPGKAPNLLIYAASSLHGGVPSRFSGSGSGTDFTLTIRTLQPEDFATYYCQQSSNTPFTFGPGTVVDFRR
notes: Human IgG4 Fc with the S108P hinge mutation; also called mAb7798; cemiplimab
In the case of B2, the midpoint of the response in test [1], the EC50, lay at 0.774 nM. Further, in test [2], the “EC50 (M), AP1-Luc PD1 antagonistic assay” value was 3.67e-09 M and the “Fold induction” value was determined as 19.2 fold. In test [3], the “90 nM or 100 nM hPD-1.mmH Bind (RU)” value came out at 88.7 RU; the affinity, expressed as Kd, was 2.56 nM; the koff turned out to be 0.000253 s⁻¹; the on-rate (kon) worked out at 98800 M⁻¹ s⁻¹. Besides, the t1/2 in test [3] came out at 45.7 min.

B3: mAb29512 (antibody, V domains shown)
VH: QVQLVQSGTEVRKPGSSVKVSCKTSGVTFNNYAITWVRQAPGQGLEWMGGIIPVFSPPNYAQKFQGRVTITADESTNTAYMELNSLRSDDTAIYFCAREGERGYTYGYDYWGQGTLVTVSS
VL: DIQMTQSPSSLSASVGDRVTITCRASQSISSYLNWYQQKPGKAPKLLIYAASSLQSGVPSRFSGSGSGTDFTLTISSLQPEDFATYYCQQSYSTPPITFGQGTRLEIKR
notes: The full chains are those of H4H29512 (human IgG4 Fc with S108P); also called H4H29512
With B3, in test [1], it took 5.69 nM to reach a half-maximal effect (EC50). Also, the “Fold induction” value in test [2] worked out at 1.29 fold. Also, in test [3], the “90 nM or 100 nM hPD-1.mmH Bind (RU)” value was 124 RU, the dissociation constant (Kd) came to 3.1 nM, the dissociation rate constant (koff) was 0.000427 s⁻¹ and the kon came to 138000 M⁻¹ s⁻¹. The molecule further returned a t1/2 in test [3] of 27.1 min.
